The chains are these.
B1: Naked IL-2 qm (quadruple mutant T3A/F42A/Y45A/L72G, His-tagged) (ligand)
chain: APASSSTKKTQLQLEHLLLDLQMILNGINNYKNPKLTRMLTAKFAMPKKATELKHLQCLEEELKPLEEVLNGAQSKNFHLRPRDLISNINVIVLELKGSETTFMCEYADETATIVEFLNRWITFAQSIISTLTVDHHHHHH
notes: also called naked IL-2 quadruple mutant; quadruple mutant IL-2
B2: 4B9 Fab (Fab, V domains shown)
VH: EVQLLESGGGLVQPGGSLRLSCAASGFTFSSYAMSWVRQAPGKGLEWVSAIIGSGASTYYADSVKGRFTISRDNSKNTLYLQMNSLRAEDTAVYYCAKGWFGGFNYWGQGTLVTVSS
VL: EIVLTQSPGTLSLSPGERATLSCRASQSVTSSYLAWYQQKPGQAPRLLINVGSRRATGIPDRFSGSGSGTDFTLTISRLEPEDFAVYYCQQGIMLPPTFGQGTKVEIK
B3: 28H1 IgG (antibody, V domains shown)
VH: EVQLLESGGGLVQPGGSLRLSCAASGFTFSSHAMSWVRQAPGKGLEWVSAIWASGEQYYADSVKGRFTISRDNSKNTLYLQMNSLRAEDTAVYYCAKGWLGNFDYWGQGTLVTVSS
VL: B2 VL with T30S, S31R, N50I, V51G, G52A, R54T, I93Q, M94V, L95I
notes: also called unmodified 28H1 IgG antibody
B4: 4G8 IgG (antibody, V domains shown)
VH: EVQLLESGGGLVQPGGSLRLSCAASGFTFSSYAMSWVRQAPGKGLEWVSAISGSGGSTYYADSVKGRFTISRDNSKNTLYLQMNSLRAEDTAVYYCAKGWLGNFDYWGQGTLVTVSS
VL: B2 VL with T30S, S31R, N50I, V51G, G52A, R54T, I93Q, M94V, L95I
B5: 14B3 Fab (Fab, V domains shown)
VH: B2 VH with I52L, G53A, S57I
VL: EIVLTQSPGTLSLSPGERATLSCRASQSVTSSYLAWYQQKPGQAPRLLINVGSRRATGIPDRFSGSGSGTDFTLTISRLEPEDFAVYYCQQGIMLPPTFGQGTKVEIKR
notes: Cleaved Fab fragment
B6: 29B11 Fab (Fab, V domains shown)
VH: B2 VH with A56G, S57I
VL: B5 VL
notes: Cleaved Fab fragment
B7: human IL-2R α-subunit, monomeric, with AcTev cleavage site and Avi His tag (receptor)
chain: ELCDDDPPEIPHATFKAMAYKEGTMLNCECKRGFRRIKSGSLYMLCTGNSSHSSWDNQCQCTSSATRNTTKQVTPQPEEQKERKTTEMQSPMQPVDQASLPGHCREPPPWENEATERIYHFVVGQMVYYQCVQGYRALHRGPAESVCKMTHGKTRWTQPQLICTGVDEQLYFQGGSGLNDIFEAQKIEWHEARAHHHHHH
notes: also called Hu IL-2R α; CD25
B8: 4B9 Fab-IL-2 qm-Fab (other)
chain: EVQLLESGGGLVQPGGSLRLSCAASGFTFSSYAMSWVRQAPGKGLEWVSAIIGSGASTYYADSVKGRFTISRDNSKNTLYLQMNSLRAEDTAVYYCAKGWFGGFNYWGQGTLVTVSSASTKGPSVFPLAPSSKSTSGGTAALGCLVKDYFPEPVTVSWNSGALTSGVHTFPAVLQSSGLYSLSSVVTVPSSSLGTQTYICNVNHKPSNTKVDKKVEPKSCDSGGGGSGGGGSGGGGAPASSSTKKTQLQLEHLLLDLQMILNGINNYKNPKLTRMLTAKFAMPKKATELKHLQCLEEELKPLEEVLNGAQSKNFHLRPRDLISNINVIVLELKGSETTFMCEYADETATIVEFLNRWITFAQSIISTLTSGGGGSGGGGSGGGGEVQLLESGGGLVQPGGSLRLSCAASGFTFSSYAMSWVRQAPGKGLEWVSAIIGSGASTYYADSVKGRFTISRDNSKNTLYLQMNSLRAEDTAVYYCAKGWFGGFNYWGQGTLVTVSSASTKGPSVFPLAPSSKSTSGGTAALGCLVKDYFPEPVTVSWNSGALTSGVHTFPAVLQSSGLYSLSSVVTVPSSSLGTQTYICNVNHKPSNTKVDKKVEPKSCD
light: EIVLTQSPGTLSLSPGERATLSCRASQSVTSSYLAWYQQKPGQAPRLLINVGSRRATGIPDRFSGSGSGTDFTLTISRLEPEDFAVYYCQQGIMLPPTFGQGTKVEIKRTVAAPSVFIFPPSDEQLKSGTASVVCLLNNFYPREAKVQWKVDNALQSGNSQESVTEQDSKDSTYSLSSTLTLSKADYEKHKVYACEVTHQGLSSPVTKSFNRGEC
notes: Fab-IL-2-Fab immunoconjugate against FAP with quadruple mutant IL-2
B9: 14B3 Fab-IL-2 qm-Fab (other)
chain: B8 chain with I52L, G53A, S57I, I436L, G437A, S441I
light: B8 light
notes: as for B8
B10: 3F2 Fab (Fab, V domains shown)
VH: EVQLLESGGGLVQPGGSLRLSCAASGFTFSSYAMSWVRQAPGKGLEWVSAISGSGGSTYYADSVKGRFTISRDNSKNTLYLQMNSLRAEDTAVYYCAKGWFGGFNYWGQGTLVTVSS
VL: B5 VL
B11: 4G8 Fab (Fab, V domains shown)
VH: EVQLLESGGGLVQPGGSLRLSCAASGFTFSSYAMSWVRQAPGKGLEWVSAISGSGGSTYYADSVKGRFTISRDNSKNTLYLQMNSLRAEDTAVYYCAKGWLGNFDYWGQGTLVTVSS
VL: B5 VL with T30S, S31R, N50I, V51G, G52A, R54T, I93Q, M94V, L95I
B12: 28H1 Fab (Fab, V domains shown)
VH: B3 VH
VL: B5 VL with T30S, S31R, N50I, V51G, G52A, R54T, I93Q, M94V, L95I
notes: Cleaved Fab fragment

For assay [1], the target named is B7. Description: SPR, receptor on CM5, kinetic. (Surface plasmon resonance follows binding to a sensor surface in real time, without labels.)
The target of assay [2] is T1, human IL-2R βγ heterodimer, subunit-Fc knobs-into-holes fusion (human).
T1 construct: The entries may hold a leader peptide; also called Hu IL-2R βγ; human IL2-R β knob γ hole heterodimer
Description: SPR, receptor on CM5, IL-2 analyte, 25°C, kinetic.
Description: (§1) Subsequently, affinity for the IL-2R βγ heterodimer and the IL-2R α-subunit were determined by surface plasmon resonance (SPR). Briefly, the ligand—either human IL-2R α-subunit (Fc2) or human IL2-R β knob γ hole heterodimer (Fc3)—was immobilized on a CM5 chip. […] Flow rate was 30 l/min and the following conditions were applied for association: 180s, dissociation: 300 s, and regeneration: 2×30 s 3M MgCl₂ for IL2-R β knob γ hole heterodimer, 10 s 50 mM NaOH for IL-2R α-subunit.

Assay [3] has as its target T2, human FAP-His (human, UniProt Q12884 27-760).
T2 construct: also called Hu FAP; His-tagged human FAP; not shown: His tag
Nature of the assay: SPR, FAP-His captured via anti-His, Fab analyte, 1:1 fit, 25°C.

In assay [4] the target is cynomolgus FAP-His (cynomolgus). Described as above.
Description: The FAP binding activity of the cleaved Fab fragments used in these examples as antigen binding, moieties was determined by surface plasmon resonance (SPR) on a Biacore machine. […] Temperature was 25° C. and HBS-EP was used as buffer. […] Fitting was performed based on a 1:1 binding model, RI=0, Rmax=local (because of capture format).
Assay [5] has as its target T3, murine FAP-His (murine, UniProt P97321 27-761).
T3 construct: not shown: His tag
The description is as above.

The target of assay [6] is T2, human FAP-His. Description: SPR, His-tagged human FAP captured via anti-His, apparent bivalent affinity (avidity), 25°C.
Description: Temperature was 25° C. and HBS-EP was used as buffer. Analyte concentration was 50 nM down to 0.05 nM at a flow rate of 50 μl/min (association: 300 s, dissociation: 900 s, regeneration: 60 s, with 10 mM glycine pH 2). Fitting was performed based on a 1:1 binding model, RI=0, Rmax=local (because of capture format).
In assay [7] the target is T4, Proleukin (Novartis/Chiron), commercially available wild-type IL-2 (UniProt P60568 22-153). Nature of the assay: SPR, receptor on CM5, IL-2 analyte, 25°C, kinetic.
Description: as §1
Assay [8] has as its target T4, Proleukin (Novartis/Chiron), …. Description: SPR, receptor on CM5, IL-2 analyte, 25°C, steady state.
Description: as §1
Assay [9] has as its target T5, human FAP expressed on stably transfected HEK293 cells (human, UniProt Q12884 1-760).
T5 construct: whole, on cells
Nature of the assay: FACS on HEK 293-human FAP cells, median fluorescence against concentration.
Description: Briefly, 250 000 cells per well were incubated with the indicated concentration of the immunoconjugates in a round-bottom 96-well plate, incubated for 30 min at 4° C., and washed once with PBS/0.1% BSA.

Assay [10] addresses T6, human DPPIV on transfected HEK 293 cells (human, UniProt P27487 1-766).
T6 construct: whole, on cells; also called CD26
Nature of the assay: FACS on HEK 293-human DPPIV cells, with HEK mock-transfected cells, cells only and sec. antibody as controls; concentration not shown.

Assay [11] deals with FAP on GM05389 fibroblasts. Description: FACS on GM05389 fibroblasts, surface-bound construct detected with secondary antibody after the times shown (internalization analysis); concentration not shown.
Assay [12] has as its target T2, human FAP-His. Nature of the assay: SPR, FAP-His captured via anti-His, Fab analyte, steady state, 25°C.
The target in assay [13] is cynomolgus FAP-His (cynomolgus). The description is as above.

Residue numbers refer to the chain shown, from its start. In names and notes the source's numbering stands. Several values for one entry are separate records, joined by “and”; a condition that tells them apart may be missing. Equal values may be shown once.

T4 sequence (P60568 other isoform, or with tags, fused parts or gaps limits assumed, form in doubt): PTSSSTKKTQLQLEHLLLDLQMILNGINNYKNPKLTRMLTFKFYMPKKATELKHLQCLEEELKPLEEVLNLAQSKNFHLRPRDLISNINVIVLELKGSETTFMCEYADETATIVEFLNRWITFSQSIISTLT

Turning to B1, in assay [1], the binding result was “no binding (tested: 300 nM)”. Further, the Kd in assay [2] was 2.7 nM and 2 nM.
In the case of B2, the Kd in assay [3] was 0.3 nM and 0.31 nM; in assay [4] it was 0.23 nM and 0.24 nM; in [5] it was 5 nM and 5.2 nM.
On to B3, for which the Kd in assay [6] stood at 0.2 nM.
As to B4, the Kd in assay [6] amounted to 0.05 nM.
Take B5: the Kd was 0.47 nM in assay [3]; 0.59 nM and 0.61 nM in [4]; 4.7 nM in assay [5].
For the molecule B6, the Kd in assay [3] was 0.19 nM; in assay [4], 0.21 nM and 0.2 nM; in [5], 1.3 nM and 1.2 nM.
With B7, the Kd in assay [7] is 7.5 nM and 12.5 nM; in assay [8], 19 nM and 17.8 nM.
As for B8, the binding result in assay [9] is “binds”; in [10] it was “no binding”; in [11], “binds”.
As a reminder, the EC50 (read off the curve) is the concentration at which the effect is half-maximal. Read a high EC50 (read off the curve) as lower potency in that assay. With B9, the “EC50 (read off the curve)” value in assay [9] was approximately 20 nM. For the same molecule, the figures for the binding result in assay [10] and in assay [11] were “no binding” and “binds”, respectively.
Regarding B10, the Kd is 6 nM in assay [3]; 4.7 nM and 5.3 nM in assay [4]; 8.9 nM and 9.5 nM in [5].
On to B11, for which the Kd in assay [3] was 53 nM and 51 nM; in [4], 33 nM and 35 nM; in assay [5] it was 0.07 nM; in assay [12] it was 48 nM; in assay [13] it was 33 nM and 34 nM.
In the case of B12, the Kd is 2.6 nM in assay [3]; 0.13 nM and 0.18 nM in [5].

The record behind these values is US20190322765A1 (Hoffmann-La Roche, published 2019).
